According to PMC4813486:
Values joined by “and” are separate entries in the source; they are usually repeats but may differ in a detail not shown here. Equal values may be shown once.

Tests used:
[1] = molecular target: full-length β2-microglobulin (UniProt P61769); assay: native MS; ion mobility MS, 15 μM protein, 100 mM ammonium acetate, pH 5
[2] = molecular target: full-length β2-microglobulin (UniProt P61769); assay: native MS; ion mobility MS, 30 μM protein, 100 mM ammonium acetate, pH 5 (data not shown)
[3] = molecular target: full-length β2-microglobulin (UniProt P61769); assay: cross-linking; BS3-d0/d4 1:1, 25 °C, 1 h; gel electrophoresis (NuPAGE); bands digested in-gel with trypsin; LC-MS/MS

stoichiometry N [1]: 2
stoichiometry N [2]: 3 and 4
stoichiometry N [3]: 2 and 3 and 4
Substance: full-length β2-microglobulin (from UniProt P61769 21-119) (natural protein)
